Measured values taken from patent publication US20210093714A1, “Combination and method for inhibiting the cancer cells” (NATIONAL TAIWAN UNIVERSITY, priority 2013, published 2021).

Experiments:
[1] = tested on: DAPK; experiment: Western blot of DAPK expression; assay type: cell-based, human
Protocol: (§1) Proteins ([…]) were separated by SDS-PAGE and transferred to a polyvinylidene difluoride membrane (Immobilon-P membrane; Millipore) by electrotransfer. The blot was blocked in a solution of 5% skim milk and 0.1% Tween 20 in PBS. Thereafter, membrane-bound proteins were probed with the following primary antibodies: CCN2, DAPK, phosphorylated ERK, ERK-1, phosphorylated Akt, Akt, TrkA, phosphorylated-Src, Src, b-actin, a-tubulin (Santa Cruz Biotechnology), p-EGFR, and EGFR (Cell Signaling Technology, Danvers, MA, USA). The membrane was washed and then incubated with HRP-conjugated secondary antibodies for 30 min. Enhanced chemiluminescence reagents (Amersham Pharmacia Biotech, Piscataway, N.J., USA) were employed to depict the protein bands on membranes. The light was captured on Kodak X-Omat Blue autoradiography film (PerkinElmer Life Sciences, Boston, Mass., USA).
This embodiment focuses on the downstream signaling in CCN2-induced anoikis. At first, the effect of DAPK which can up-regulate CCN2 played on CCN2 induced anoikis and metastasis inhibition of lung adenocarcinoma cell lineswas observed by RT-PCR, dual luciferase reporter assay and western blot analysis, the results shown in FIGS. 6A to 6C. […] In addition, in the lung adenocarcinoma cell line, CL1-0/siCCN2, DAPK expression is suppressed, and DAPK expression also be suppressed with increasing dose (0 μg, 1μg, 3μg), (as shown on the top right in the FIG. 6C). Therefore, CCN2 induced DAPK expression in time- and dose-dependent manners.

[2] = target: T1, EGFR/c-Cbl complex (Homo sapiens, UniProt P00533); experiment: Immunoprecipitation/western blot of EGFR/c-Cbl complex formation; assay type: cell-based; conditions: CL1-5 with MG132; 0 to 60 minutes; FIG. 4D
T1 construct: expressed in transfected cells; host or cells: CL1-5 (EGFR endogenous; HA-c-Cbl transiently transfected)
Protocol: as §1
(§2) CCN2 transfectants were seeded overnight and incubated in serum-free media for 24 h. For immunoprecipitations, cells were lysed in an RIPA buffer (150 mM NaCl, 50 mM Tris-base, 5 mM EDTA, 1% NP-40, and 0.25% deoxycholate; pH 7.4). Protein concentrations were determined using the BCA protein assay kit (Pierce, Rockford, Ill., USA). […]

[3] = target: T2, EGFR (Homo sapiens, UniProt P00533); experiment: FACS of membranous association between CCN2 and EGFR; assay type: cell-based; conditions: CL1-5 and A549; rCCN2 100 ng/mL; FIG. 2B
T2 construct: endogenous in cells; host or cells: CL1-5 and A549 human lung adenocarcinoma cell lines
Protocol: After washing, cells were stained with an FITC-labelled goat anti-rabbit secondary antibody (Santa Cruz Biotechnology) for 30 min in the dark. Analysis was then conducted with an FACS Calibur cytometer (Collaborative Biomedical, BD Biosciences).
In this embodiment, the concentration thereof is about 100 ng/mL.

[4] = tested on: lung adenocarcinoma cell line, CL1-5; experiment: Anoikis assay (DNA fragmentation); assay type: cell-based, human; conditions: FIG. 5A
Source text: This embodiment focuses on whether CCN2 can induce anoikis in lung adenocarcinoma cells in vitro and in vivo. At first, CCN2 induces anoikis which is induced by CCN2 in lung adenocarcinoma cells in vitro was observed by anoikis assay, the results shown in FIGS. 5A to 5C.

[5] = tested on: EGFR; experiment: Immunoprecipitation and in vitro binding assay of CCN2 and EGFR; design: species or system human; conditions: A549; FIG. 2C
Protocol: CCN2 transfectants were seeded overnight and incubated in serum-free media for 24 h. For immunoprecipitations, cells were lysed in an RIPA buffer (150 mM NaCl, 50 mM Tris-base, 5 mM EDTA, 1% NP-40, and 0.25% deoxycholate; pH 7.4). Protein concentrations were determined using the BCA protein assay kit (Pierce, Rockford, Ill., USA). Lysate was incubated for 2 h at 4[…] with gentle rotation with rabbit polyclonal antibodies for human EGFR, CCN2, or Src immobilized onto protein A—sepharose beads (Santa Cruz Biotechnology, Santa Cruz, Calif., USA). Beads were washed twice with an IP buffer (137 mM NaCl, 2.7 mM KCl, 1 mM MgCl2, 1 mM CaCl2, 1% NP-40, 10% glycerol, 1 mg/ml bovine serum albumin, and 20 mM Tris; pH 8.0), boiled in a sodium dodecyl sulfate-polyacrylamide gel electrophoresis (SDS-PAGE) sample buffer, and centrifuged (12000×g, 4° C. for 15 min).
The recombinant proteins rCCN2 (BioVendor Com. Heidelberg, Germany), rEGFR, and rEGF (R&D Techne Corporation) ([…]) were added in binding buffer (50 mM sodium phosphate, pH 7.5, 500 mM NaCl, and I% Nonidet P-40) and incubated with gentle rotation at 4° C. for 2 h. Thereafter, crosslinks were reversed by boiling in an SDS-PAGE sample buffer (containing 0.1M dithiothreitol (DTT)) before loading on SDS-PAGE gels for immunoblotting analysis. […]

[6] = tested on: lung adenocarcinoma cell line, CL1-5; experiment: In vivo metastasis of i.v. injected CL1-5, celltracker probe; conditions: nude mice, i.v. CL1-5; CCN2 1 mg/kg per day; FIG. 5G
Source text: Mice were anesthetized with isoflurane inhalation, and biofluorescence images were photographed with a CCD camera (IVIS; Xenogen Corporation, Caliper Life Sciences, Hopkinton, Mass., USA) at specific times. Imaging times ranged from 1 to 60 s, depending on the amount of fluorescence activity. Biofluorescence from the region of interest (ROI) was defined manually, and the data were expressed as photon flux (photons/s/cm^2/steradian). Background photon flux was defined using an ROI from a mouse that was not given an […]. injection of cancer cells. All biofluorescence data were collected and analyzed using IVIS. Celltracker dye was purchased from Molecular Probes, Invitrogen Corporation.
Cells were washed and resuspended in PBS. […] The mice were injected i.v. with cells so that we could measure the metastatic potential and perform biofluorescence imaging. The mice were killed after 8 weeks, and all of their organs were examined for metastasis formation. The lungs were removed and fixed in 10% formalin fixative. The number of lung-tumor colonies was counted under a dissecting microscope. […]

[7] = target: T2, EGFR; experiment: Western blot of EGFR ubiquitination; assay type: cell-based; conditions: CL1-5; FIG. 4C
Protocol: as §1, §2

B1: Connective tissue growth factor (CCN2), wild-type full length (ligand, human, UniProt P29279 27-349, looked up)
chain: QNCSGPCRCPDEPAPRCPAGVSLVLDGCGCCRVCAKQLGELCTERDPCDPHKGLFCHFGSPANRKIGVCTAKDGAPCIFGGTVYRSGESFQSSCKYQCTCLDGAVGCMPLCSMDVRLPSPDCPFPRRVKLPGKCCEEWVCDEPKDQTVVGPALAAYRLEDTFGPDPTMIRANCLVQTTEWSACSKTCGMGISTRVTNDNASCRLEKQSRLCMVRPCEADLEENIKKGKKCIRTPKISKPIKFELSGCTSMKTYRAKFCGVCTDGRCCTPHRTTTLPVEFKCPDGEVMKKNMMFIKTCACHYNCPGDNDIFESLYYRKMYGDMA
notes: also called Recombinant CCN2; exogenous CCN2
In the case of B1, the DAPK expression ([1]; CL1-5, A549 and CL1-0/siCCN2, increasing time 0 minutes to 12 hours, FIG. 6B) is reported as “promote DAPK expression”, the DAPK expression ([1]; CL1-5, increasing dose (0 μm, 1μg, 3 μg), FIG. 6C) is reported as “promote DAPK expression” and the “formation of EGFR/c-Cbl complex” value [2] is reported as “gradually increase the formation of EGFR/c-Cbl complex”. For the same molecule, the “detection of membranous CCN2” value [3] was “enhanced the detection of membranous CCN2”, the DNA fragmentation ([4]; attached CL1-5, rCCN2 0, 20, 100, 200 ng/mL) was “no obvious difference” and the DNA fragmentation ([4]; suspended CL1-5, rCCN2 with higher concentration) was “increased”. For the same molecule, the “physical association between CCN2 and EGFR” value [5] was “there is a physically association”, the “celltracker signals in lungs” value [6] was “much weaker” and the “number of metastatic lung nodules” value [6] was “significantly reduced”. For the same molecule, the EGFR ubiquitination degree [7] was “increase the EGFR ubiquitination degree”.
